# Results from the supplement of paper PMC9112550, “Optimization of the antimicrobial peptide Bac7 by deep mutational scanning” (BMC Biology, 2022).
# System: Escherichia coli TOP10
# Assay: shrunken log2 fold change of peptide-encoding DNA abundance (4.5 h post-induction vs induction); higher = less antimicrobial activity (less host growth inhibition)
# Conditions: time post-induction: 4.5 h; library: site-saturation at positions 5, 18, 19, 20
# 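Also: peptides expressed intracellularly from a pBAD plasmid library in pooled LB shake-flask culture, induced with 0.3% L-arabinose, DNA abundance read by NGS, three biological replicates, DESeq2 with apeglm shrinkage.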
row,Sequence,shrunken log2 fold change
1,RRIRSRPPRLPRPRPRPWKRPRP,-0.000813
2,RRIRNRPPRLPRPRPRPPPPPRP,1.25
3,RRIRHRPPRLPRPRPRPKNWPRP,0.136
4,RRIRGRPPRLPRPRPRPSTKPRP,0.261
5,RRIRMRPPRLPRPRPRPFCYPRP,-0.117
6,RRIRHRPPRLPRPRPRPDVKPRP,-0.0186
7,RRIRKRPPRLPRPRPRPPIKPRP,0.0648
8,RRIRMRPPRLPRPRPRPWKEPRP,0.0155
9,RRIRDRPPRLPRPRPRPWACPRP,0.0329
10,RRIRRRPPRLPRPRPRPCSRPRP,0.00396
11,RRIRYRPPRLPRPRPRPVASPRP,-0.163
12,RRIRIRPPRLPRPRPRPNDPPRP,-0.19
13,RRIRLRPPRLPRPRPRPVPYPRP,-0.2
14,RRIRLRPPRLPRPRPRPKMFPRP,0.0156
15,RRIRCRPPRLPRPRPRPTVKPRP,-0.286
16,RRIRPRPPRLPRPRPRPYFRPRP,-0.463
17,RRIRVRPPRLPRPRPRPWKAPRP,0.0634
18,RRIRLRPPRLPRPRPRPNTHPRP,-0.473
19,RRIRSRPPRLPRPRPRPLCDPRP,0.155
20,RRIRERPPRLPRPRPRPEHKPRP,-0.0265
21,RRIRARPPRLPRPRPRPTFKPRP,0.341
22,RRIRERPPRLPRPRPRPPRAPRP,0.453

row,Sequence,shrunken log2 fold change
1,RRIRHRPPRLPRPRPRPHQRPRP,0.0129
2,RRIRNRPPRLPRPRPRPMPIPRP,-0.0173
3,RRIRLRPPRLPRPRPRPLHIPRP,-0.367
4,RRIRFRPPRLPRPRPRPMWAPRP,0.0936
5,RRIRWRPPRLPRPRPRPKEAPRP,0.111
6,RRIRIRPPRLPRPRPRPLQRPRP,-0.106
7,RRIRVRPPRLPRPRPRPSTGPRP,-0.00698
8,RRIRSRPPRLPRPRPRPINWPRP,-0.161
9,RRIRNRPPRLPRPRPRPKICPRP,-0.262
10,RRIRMRPPRLPRPRPRPRRCPRP,1.08
11,RRIRHRPPRLPRPRPRPGRYPRP,-0.017
12,RRIRERPPRLPRPRPRPVEAPRP,0.21
13,RRIRFRPPRLPRPRPRPNNYPRP,-0.539
14,RRIRPRPPRLPRPRPRPCTIPRP,-0.536
15,RRIRIRPPRLPRPRPRPIQQPRP,-0.0134
16,RRIRFRPPRLPRPRPRPPCSPRP,0.0952
17,RRIRTRPPRLPRPRPRPTEGPRP,0.1
18,RRIRRRPPRLPRPRPRPFTLPRP,-0.2
19,RRIRSRPPRLPRPRPRPPDVPRP,0.14
20,RRIRGRPPRLPRPRPRPTMHPRP,0.715
21,RRIRYRPPRLPRPRPRPIFLPRP,-0.246
22,RRIRFRPPRLPRPRPRPDKRPRP,-0.0786

row,Sequence,shrunken log2 fold change
1,RRIRHRPPRLPRPRPRPNFRPRP,-0.144
2,RRIRARPPRLPRPRPRPCKWPRP,0.146
3,RRIRIRPPRLPRPRPRPMPVPRP,-0.244
4,RRIRRRPPRLPRPRPRPEEKPRP,-0.00133
5,RRIRARPPRLPRPRPRPWAYPRP,-0.0297
6,RRIRWRPPRLPRPRPRPYYMPRP,-0.258
7,RRIRIRPPRLPRPRPRPSPTPRP,-0.424
8,RRIRPRPPRLPRPRPRPFVMPRP,-0.201
9,RRIRYRPPRLPRPRPRPRITPRP,-0.382
10,RRIRIRPPRLPRPRPRPLVEPRP,-0.0936
11,RRIRLRPPRLPRPRPRPMTGPRP,-0.0115
12,RRIRHRPPRLPRPRPRPFRQPRP,0.0583
13,RRIRPRPPRLPRPRPRPRVKPRP,-0.0194
14,RRIRDRPPRLPRPRPRPPDDPRP,0.535
15,RRIRFRPPRLPRPRPRPTPPPRP,0.797
16,RRIRPRPPRLPRPRPRPNEHPRP,-0.263
17,RRIRFRPPRLPRPRPRPWLEPRP,0.0931
18,RRIRMRPPRLPRPRPRPCCQPRP,0.212
19,RRIRIRPPRLPRPRPRPSKVPRP,-1
20,RRIRLRPPRLPRPRPRPDACPRP,0.252
21,RRIRERPPRLPRPRPRPTIIPRP,-0.664
22,RRIRQRPPRLPRPRPRPWHRPRP,-0.0346

row,Sequence,shrunken log2 fold change
1,RRIRLRPPRLPRPRPRPGCPPRP,0.0643
2,RRIRYRPPRLPRPRPRPCCAPRP,-0.437
3,RRIRVRPPRLPRPRPRPDNGPRP,0.0214
4,RRIRHRPPRLPRPRPRPQWIPRP,-0.031
5,RRIRRRPPRLPRPRPRPQTTPRP,0.137
6,RRIRPRPPRLPRPRPRPMRDPRP,0.467
7,RRIRNRPPRLPRPRPRPCCSPRP,-0.0427
8,RRIRWRPPRLPRPRPRPHPSPRP,0.452
9,RRIRIRPPRLPRPRPRPNFTPRP,-0.545
10,RRIRYRPPRLPRPRPRPSVRPRP,-0.301
11,RRIRDRPPRLPRPRPRPTTMPRP,0.0275
12,RRIRHRPPRLPRPRPRPKDFPRP,-0.0494
13,RRIRIRPPRLPRPRPRPAHPPRP,0.239
14,RRIRARPPRLPRPRPRPDTCPRP,-0.162
15,RRIRARPPRLPRPRPRPPHGPRP,0.788
16,RRIRVRPPRLPRPRPRPIIVPRP,0.0713
17,RRIRMRPPRLPRPRPRPEENPRP,3.95
18,RRIRVRPPRLPRPRPRPQWSPRP,-0.201
19,RRIRIRPPRLPRPRPRPNYAPRP,-0.381
20,RRIRIRPPRLPRPRPRPANTPRP,0.027
21,RRIRQRPPRLPRPRPRPDHHPRP,-0.308
22,RRIRPRPPRLPRPRPRPYYTPRP,-0.379

row,Sequence,shrunken log2 fold change
1,RRIRQRPPRLPRPRPRPIDKPRP,0.0866
2,RRIRDRPPRLPRPRPRPGRMPRP,0.174
3,RRIRDRPPRLPRPRPRPFNLPRP,-0.176
4,RRIRLRPPRLPRPRPRPLFQPRP,-0.322
5,RRIRRRPPRLPRPRPRPVGDPRP,-0.0486
6,RRIRDRPPRLPRPRPRPDFMPRP,0.161
7,RRIRMRPPRLPRPRPRPDMKPRP,0.182
8,RRIRHRPPRLPRPRPRPFHRPRP,0.00911
9,RRIRCRPPRLPRPRPRPAYVPRP,-0.288
10,RRIRFRPPRLPRPRPRPSQNPRP,-0.22
11,RRIRYRPPRLPRPRPRPCVHPRP,-0.0274
12,RRIRCRPPRLPRPRPRPPMCPRP,-0.23
13,RRIRNRPPRLPRPRPRPTRFPRP,0.3
14,RRIRMRPPRLPRPRPRPITPPRP,0.0378
15,RRIRVRPPRLPRPRPRPQGVPRP,-0.275
16,RRIRIRPPRLPRPRPRPVSGPRP,0.0231
17,RRIRVRPPRLPRPRPRPLNVPRP,-0.434
18,RRIRARPPRLPRPRPRPFYCPRP,-0.402
19,RRIRERPPRLPRPRPRPFDGPRP,0.000346
20,RRIRVRPPRLPRPRPRPPTWPRP,0.0832
21,RRIRWRPPRLPRPRPRPQIIPRP,-0.805
